Article PMC8827656
Where “and” joins values, the source holds several entries; their conditions need not be identical. Equal values may be shown once.

Key:
[1] = biological target: photosystem I (PSI) complex from white-light-grown Chroococcidiopsis thermalis PCC 7203 (C. thermalis PCC 7203 (endogenous in the cells)); assay: atomic force microscopy; thylakoid membrane patches from 20-50% sucrose gradients with 0.1% digitonin, adsorbed on mica; PeakForce mode under liquid; 10 mM Hepes pH 7.5, 100 mM KCl; oligomer assigned from heights, nearest-neighbour angles and lateral distances
[2] = biological target: photosystem I (PSI) complex from white-light-grown Chroococcidiopsis thermalis PCC 7203 (C. thermalis PCC 7203 (endogenous in the cells)); assay: native gel or EMSA; BN-PAGE; thylakoid membranes solubilised with 0.4 or 2% DDM, 4-16% NativePAGE gels
[3] = biological target: photosystem I (PSI) complex from white-light-grown Synechococcus sp. PCC 7335 (Synechococcus sp. PCC 7335 (endogenous in the cells)); assay: atomic force microscopy; thylakoid membrane patches from 20-50% sucrose gradients with 0.1% digitonin, adsorbed on mica; PeakForce mode under liquid; 10 mM Hepes pH 7.5, 100 mM KCl; oligomer assigned from heights, nearest-neighbour angles and lateral distances
[4] = biological target: photosystem I (PSI) complex from white-light-grown Synechococcus sp. PCC 7335 (Synechococcus sp. PCC 7335 (endogenous in the cells)); assay: sucrose gradient sedimentation; thylakoid membranes solubilised with 1% DDM, 5-20% sucrose gradients with 0.05% DDM, 140,000g for 12-16 h at 4°C; bands assigned by position (fig. S3B), no TEM told
[5] = biological target: photosystem I (PSI) complex from white-light-grown Synechococcus sp. PCC 7335 (Synechococcus sp. PCC 7335 (endogenous in the cells)); assay: atomic force microscopy; thylakoid membrane patches from 20-50% sucrose gradients with 0.1% digitonin, adsorbed on mica; PeakForce mode under liquid; 10 mM Hepes pH 7.5, 100 mM KCl; oligomer assigned from heights, nearest-neighbour angles and lateral distances; remark: listed apart in the source
[6] = biological target: photosystem I (PSI) complex from white-light-grown Chlorogloeopsis fritschii PCC 9212 (C. fritschii PCC 9212 (endogenous in the cells)); assay: as above
[7] = biological target: photosystem I (PSI) complex from white-light-grown Chlorogloeopsis fritschii PCC 9212 (C. fritschii PCC 9212 (endogenous in the cells)); assay: sucrose gradient sedimentation + negative-stain TEM; thylakoid membranes solubilised with 1% DDM, 5-20% sucrose gradients with 0.05% DDM, 140,000g for 12-16 h at 4°C; bands negatively stained with uranyl acetate and imaged by TEM
[8] = biological target: photosystem I (PSI) complex from FRL-acclimated Chlorogloeopsis fritschii PCC 9212 (C. fritschii PCC 9212 (endogenous in the cells)); assay: atomic force microscopy; thylakoid membrane patches from 20-50% sucrose gradients with 0.1% digitonin, adsorbed on mica; PeakForce mode under liquid; 10 mM Hepes pH 7.5, 100 mM KCl; oligomer assigned from heights, nearest-neighbour angles and lateral distances
[9] = biological target: photosystem I (PSI) complex from FRL-acclimated Chlorogloeopsis fritschii PCC 9212 (C. fritschii PCC 9212 (endogenous in the cells)); assay: sucrose gradient sedimentation + negative-stain TEM; thylakoid membranes solubilised with 1% DDM, 5-20% sucrose gradients with 0.05% DDM, 140,000g for 12-16 h at 4°C; bands negatively stained with uranyl acetate and imaged by TEM
[10] = biological target: photosystem I (PSI) complex from FRL-acclimated Chroococcidiopsis thermalis PCC 7203 (C. thermalis PCC 7203 (endogenous in the cells)); assay: atomic force microscopy; thylakoid membrane patches from 20-50% sucrose gradients with 0.1% digitonin, adsorbed on mica; PeakForce mode under liquid; 10 mM Hepes pH 7.5, 100 mM KCl; oligomer assigned from heights, nearest-neighbour angles and lateral distances
[11] = biological target: photosystem I (PSI) complex from FRL-acclimated Chroococcidiopsis thermalis PCC 7203 (C. thermalis PCC 7203 (endogenous in the cells)); assay: native gel or EMSA; BN-PAGE; thylakoid membranes solubilised with 0.4 or 2% DDM, 4-16% NativePAGE gels
[12] = biological target: photosystem I (PSI) complex from FRL-acclimated Chroococcidiopsis thermalis PCC 7203 (C. thermalis PCC 7203 (endogenous in the cells)); assay: sucrose gradient sedimentation + negative-stain TEM; thylakoid membranes solubilised with 1% DDM, 5-20% sucrose gradients with 0.05% DDM, 140,000g for 12-16 h at 4°C; bands negatively stained with uranyl acetate and imaged by TEM
[13] = biological target: photosystem I (PSI) complex from FRL-acclimated Synechococcus sp. PCC 7335 (Synechococcus sp. PCC 7335 (endogenous in the cells)); assay: atomic force microscopy; thylakoid membrane patches from 20-50% sucrose gradients with 0.1% digitonin, adsorbed on mica; PeakForce mode under liquid; 10 mM Hepes pH 7.5, 100 mM KCl; oligomer assigned from heights, nearest-neighbour angles and lateral distances
[14] = biological target: photosystem I (PSI) complex from FRL-acclimated Synechococcus sp. PCC 7335 (Synechococcus sp. PCC 7335 (endogenous in the cells)); assay: sucrose gradient sedimentation; thylakoid membranes solubilised with 1% DDM, 5-20% sucrose gradients with 0.05% DDM, 140,000g for 12-16 h at 4°C; bands assigned by position (fig. S3B), no TEM told
[15] = biological target: photosystem II (PSII) complex from FRL-acclimated Chroococcidiopsis thermalis PCC 7203 (C. thermalis PCC 7203 (endogenous in the cells)); assay: sucrose gradient sedimentation + negative-stain TEM; thylakoid membranes solubilised with 1% DDM, 5-20% sucrose gradients with 0.05% DDM, 140,000g for 12-16 h at 4°C; bands negatively stained with uranyl acetate and imaged by TEM

photosystem I (PSI) complex from white-light-grown Chroococcidiopsis thermalis PCC 7203
stoichiometry N [1]: 2 | stoichiometry N [2]: 2

photosystem I (PSI) complex from white-light-grown Synechococcus sp. PCC 7335
stoichiometry N [3]: 2 | stoichiometry N [4]: 2 and 3 and 4 | stoichiometry N [5]: 3

photosystem I (PSI) complex from white-light-grown Chlorogloeopsis fritschii PCC 9212
stoichiometry N [6]: 2 | stoichiometry N [7]: 4 and 2

photosystem I (PSI) complex from FRL-acclimated Chlorogloeopsis fritschii PCC 9212
stoichiometry N [8]: 3 | stoichiometry N [9]: 3

photosystem I (PSI) complex from FRL-acclimated Chroococcidiopsis thermalis PCC 7203
stoichiometry N [10]: 3 | stoichiometry N [11]: 3 | stoichiometry N [12]: 3 and 2

photosystem I (PSI) complex from FRL-acclimated Synechococcus sp. PCC 7335
stoichiometry N [13]: 3 | stoichiometry N [14]: 3 and 2

photosystem II (PSII) complex from FRL-acclimated Chroococcidiopsis thermalis PCC 7203
stoichiometry N [15]: 2
